Measured values published in patent CN118063606A (JIANGXI SAIJI BIOTECHNOLOGY CO LTD; HANGZHOU SAIJI …, dated 2024).

Columns and labels:
[1] = molecular target: 重组人THSD7A蛋白 (recombinant human THSD7A protein) (human) (UniProt Q9UPZ6); assay: indirect ELISA on coated THSD7A, against the anti-THSD7A human serum standard
[2] = molecular target: 重组人THSD7A蛋白 (recombinant human THSD7A protein) (human) (UniProt Q9UPZ6); assay: indirect ELISA on coated THSD7A, value read from the curve of the anti-THSD7A human serum standard
[3] = molecular target: 重组人THSD7A蛋白 (recombinant human THSD7A protein) (human) (UniProt Q9UPZ6); assay: indirect ELISA on coated THSD7A, serum standard read on the rhA3 standard curve
[4] = molecular target: T1, 重组人THSD7A蛋白 (recombinant human THSD7A protein) (human, UniProt Q9UPZ6 48-1606); assay: phage ELISA / ELISA of supernatants on the antigen, then chemiluminescence immunoassay of purified antibody
T1 construct: Expressed by transient transfection of 293T cells; no tag is mentioned; also called hTHSD7A; 人源THSD7A
T1 sequence (Q9UPZ6 48-1606 limits assumed): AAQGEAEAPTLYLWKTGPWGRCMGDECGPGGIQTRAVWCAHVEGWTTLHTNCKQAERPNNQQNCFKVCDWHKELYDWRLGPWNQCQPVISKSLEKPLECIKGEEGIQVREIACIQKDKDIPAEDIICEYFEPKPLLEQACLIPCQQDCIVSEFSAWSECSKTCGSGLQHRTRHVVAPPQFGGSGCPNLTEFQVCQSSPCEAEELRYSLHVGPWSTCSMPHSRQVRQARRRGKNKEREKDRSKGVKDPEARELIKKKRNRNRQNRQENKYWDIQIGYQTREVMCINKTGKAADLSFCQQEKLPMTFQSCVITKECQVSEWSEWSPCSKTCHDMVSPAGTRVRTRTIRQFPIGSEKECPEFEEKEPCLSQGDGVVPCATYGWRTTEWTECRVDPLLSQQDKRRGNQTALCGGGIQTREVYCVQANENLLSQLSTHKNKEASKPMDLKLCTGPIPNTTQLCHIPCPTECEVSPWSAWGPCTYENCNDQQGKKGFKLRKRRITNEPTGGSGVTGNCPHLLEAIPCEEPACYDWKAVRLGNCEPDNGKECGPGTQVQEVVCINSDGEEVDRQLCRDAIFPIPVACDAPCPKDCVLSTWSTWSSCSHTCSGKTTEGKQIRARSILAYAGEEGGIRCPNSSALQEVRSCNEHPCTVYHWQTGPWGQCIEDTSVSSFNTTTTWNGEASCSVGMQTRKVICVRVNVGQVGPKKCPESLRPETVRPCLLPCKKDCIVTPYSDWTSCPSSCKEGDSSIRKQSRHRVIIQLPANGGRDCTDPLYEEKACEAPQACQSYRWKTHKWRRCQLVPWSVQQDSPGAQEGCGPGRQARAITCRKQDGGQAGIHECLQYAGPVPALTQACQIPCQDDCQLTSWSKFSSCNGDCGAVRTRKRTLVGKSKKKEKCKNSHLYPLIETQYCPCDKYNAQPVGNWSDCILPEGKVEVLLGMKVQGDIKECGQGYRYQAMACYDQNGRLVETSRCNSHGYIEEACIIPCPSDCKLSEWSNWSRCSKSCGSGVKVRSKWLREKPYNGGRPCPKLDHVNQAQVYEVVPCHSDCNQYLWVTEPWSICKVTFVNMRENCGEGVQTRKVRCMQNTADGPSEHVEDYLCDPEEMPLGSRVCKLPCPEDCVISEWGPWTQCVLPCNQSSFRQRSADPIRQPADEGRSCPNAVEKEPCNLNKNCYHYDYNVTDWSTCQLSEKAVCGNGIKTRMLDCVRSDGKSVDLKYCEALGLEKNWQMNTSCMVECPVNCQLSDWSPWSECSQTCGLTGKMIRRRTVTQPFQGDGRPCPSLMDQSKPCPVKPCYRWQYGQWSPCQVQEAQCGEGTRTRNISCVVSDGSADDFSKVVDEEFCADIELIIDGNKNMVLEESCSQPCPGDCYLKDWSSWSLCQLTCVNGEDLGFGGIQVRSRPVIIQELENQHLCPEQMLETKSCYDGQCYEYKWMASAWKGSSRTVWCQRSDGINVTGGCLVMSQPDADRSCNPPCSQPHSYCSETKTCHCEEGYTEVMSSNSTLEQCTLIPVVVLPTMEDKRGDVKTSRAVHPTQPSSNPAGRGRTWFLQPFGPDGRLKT

Row | Binder | THSD7A抗体活性 per ng [1] | 比活 at 4ng/mL rhA3 [1] | 比活 at 20ng/mL rhA3 [1] | 比活 at 100ng/mL rhA3 [1] | THSD7A抗体浓度 (read from serum standard curve) at 4ng/mL rhA3 [2] | THSD7A抗体浓度 (read from serum standard curve) at 20ng/mL rhA3 [2] | THSD7A抗体浓度 (read from serum standard curve) at 100ng/mL rhA3 [2] | 比活 (serum standard 12U/mL on rhA3 curve) [3] | 比活 (serum standard 60U/mL on rhA3 curve) [3] | 比活 (serum standard 300U/mL on rhA3 curve) [3] | binding result [4]
1 | 嵌合单抗rhA3 (重组嵌合抗体A3单抗) (antibody, human IgG4 S228P, kappa, V domains shown) VH: QSVKESGGRLVTPGGTLTLTCTVSGFSLSTYYMSWVRQAPGKGLEWIGSIESYGDRYYATWAKGRFTISKTSSTTVDLKMTSLTASDTATYFCTRNDLSWDNDNIWGPGTLVTVSS VL: DVQMTQTPSSVSVSVGGTVTINCQASQSVYGNNELNWYQQKSGQPPKLLIYKAGTLASGVPSRFSGSGSGTQFTLTISDLECDDAAIYYCQGGYWGQRAFGGGTKLEIKR | 3 U/ng | 3.01 U/ng | 2.99 U/ng | 3.05 U/ng | 12 U/mL | 60.5 U/mL | 305 U/mL | 3.01 U/ng | 2.97 U/ng | 2.97 U/ng | 
2 | 小鼠抗THSD7A单抗A3 (antibody, V domains shown, Selected from a phage scFv library of immunised mice; variable regions cloned into a eukaryotic expression vector and expressed in 293T cells) VH: QSVKESGGRLVTPGGTLTLTCTVSGFSLSTYYMSWVRQAPGKGLEWIGSIESYGDRYYATWAKGRFTISKTSSTTVDLKMTSLTASDTATYFCTRNDLSWDNDNIWGPGTLVTVSS VL: DVQMTQTPSSVSVSVGGTVTINCQASQSVYGNNELNWYQQKSGQPPKLLIYKAGTLASGVPSRFSGSGSGTQFTLTISDLECDDAAIYYCQGGYWGQRAFGGGTKLEIK |  |  |  |  |  |  |  |  |  |  | binds
